# Reference: ChEMBL document CHEMBL4330076, “Quinazolin-2,4-dione-Based Hydroxamic Acids as Selective Histone Deacetylase-6 Inhibitors for Treatment of Non-Small Cell Lung Cancer” (J Med Chem, 2019)
# Legend:
# [1] = substrate: O=C(NO)c1ccc(Cn2c(=O)n(CCc3ccccc3)c(=O)c3ccccc32)cc1; settings: Homo sapiens
# Description: Competitive inhibition of human HDAC6 CD2 expressed in Escherichia coli BL21 (RIL) assessed as substrate Km using Boc-Lys (Ac)-AMC as substrate preincubated for 10 mins followed by substrate addition and measured after 30 mins by fluorescence assay
# [2] = substrate: COc1ccccc1CCn1c(=O)c2ccccc2n(Cc2ccc(C(=O)NO)cc2)c1=O; settings: Homo sapiens
# Description: (§1) Inhibition of human HDAC6 CD2 expressed in Escherichia coli BL21 (RIL) assessed as substrate Km using Boc-Lys (Ac)-AMC as substrate preincubated for 10 mins followed by substrate addition and measured after 30 mins by fluorescence assay
# [3] = substrate: O=C(NO)c1ccc(Cn2c(=O)n(CCc3ccccc3)c(=O)c3cccnc32)cc1; settings: Homo sapiens
# Description: as §1
# [4] = substrate: COc1ccccc1CCn1c(=O)c2ccccc2n(Cc2ccc(C(=O)NO)cc2)c1=O; settings: Homo sapiens; Sf9
# Description: (§2) Inhibition of human full-length recombinant HDAC6 expressed in baculovirus infected Sf9 insect cells assessed as substrate Km using Boc-Lys (Ac)-AMC as substrate preincubated for 10 mins followed by substrate addition and measured after 30 mins by fluorescence assay
# [5] = substrate: CN1CCc2c(c3ccccc3n2Cc2ccc(C(=O)NO)cc2)C1; settings: Homo sapiens; Sf9
# Description: as §2
# [6] = substrate: O=C(NO)c1ccc(Cn2c(=O)n(CCc3ccccc3)c(=O)c3cccnc32)cc1; settings: Homo sapiens; Sf9
# Description: as §2
# [7] = substrate: O=C(NO)c1ccc(Cn2c(=O)n(CCc3ccccc3)c(=O)c3ccccc32)cc1; settings: Homo sapiens; Sf9
# Description: Competitive inhibition of human full-length recombinant HDAC6 expressed in baculovirus infected Sf9 insect cells assessed as substrate Km using Boc-Lys (Ac)-AMC as substrate preincubated for 10 mins followed by substrate addition and measured after 30 mins by fluorescence assay
protein,measurement,setting,value
"Protein deacetylase HDAC6 (Homo sapiens), Q9UBN7 (protein) MTSTGQDSTTTRQRRSRQNPQSPPQDSSVTSKRNIKKGAVPRSIPNLAEVKKKGKMKKLGQAMEEDLIVGLQGMDLNLEAEALAGTGLVLDEQLNEFHCLWDDSFPEGPERLHAIKEQLIQEGLLDRCVSFQARFAEKEELMLVHSLEYIDLMETTQYMNEGELRVLADTYDSVYLHPNSYSCACLASGSVLRLVDAVLGAEIRNGMAIIRPPGHHAQHSLMDGYCMFNHVAVAARYAQQKHRIRRVLIVDWDVHHGQGTQFTFDQDPSVLYFSIHRYEQGRFWPHLKASNWSTTGFGQGQGYTINVPWNQVGMRDADYIAAFLHVLLPVALEFQPQLVLVAAGFDALQGDPKGEMAATPAGFAQLTHLLMGLAGGKLILSLEGGYNLRALAEGVSASLHTLLGDPCPMLESPGAPCRSAQASVSCALEALEPFWEVLVRSTETVERDNMEEDNVEESEEEGPWEPPVLPILTWPVLQSRTGLVYDQNMMNHCNLWDSHHPEVPQRILRIMCRLEELGLAGRCLTLTPRPATEAELLTCHSAEYVGHLRATEKMKTRELHRESSNFDSIYICPSTFACAQLATGAACRLVEAVLSGEVLNGAAVVRPPGHHAEQDAACGFCFFNSVAVAARHAQTISGHALRILIVDWDVHHGNGTQHMFEDDPSVLYVSLHRYDHGTFFPMGDEGASSQIGRAAGTGFTVNVAWNGPRMGDADYLAAWHRLVLPIAYEFNPELVLVSAGFDAARGDPLGGCQVSPEGYAHLTHLLMGLASGRIILILEGGYNLTSISESMAACTRSLLGDPPPLLTLPRPPLSGALASITETIQVHRRYWRSLRVMKVEDREGPSSSKLVTKKAPQPAKPRLAERMTTREKKVLEAGMGKVTSASFGEESTPGQTNSETAVVALTQDQPSEAATGGATLAQTISEAAIGGAMLGQTTSEEAVGGATPDQTTSEETVGGAILDQTTSEDAVGGATLGQTTSEEAVGGATLAQTTSEAAMEGATLDQTTSEEAPGGTELIQTPLASSTDHQTPPTSPVQGTTPQISPSTLIGSLRTLELGSESQGASESQAPGEENLLGEAAGGQDMADSMLMQGSRGLTDQAIFYAVTPLPWCPHLVAVCPIPAAGLDVTQPCGDCGTIQENWVCLSCYQVYCGRYINGHMLQHHGNSGHPLVLSYIDLSAWCYYCQAYVHHQALLDVKNIAHQNKFGEDMPHPH",Km,[1],29.8 µM
same,Km,[2],32.5 µM
same,Km,[3],35.3 µM
same,Km,[4],34.6 µM
same,Km,[5],29.1 µM
same,Km,[6],21.8 µM
same,Km,[7],16.7 µM
